From patent US20120058906A1

Tests used:
[1] = molecular target: Recombinant Human DLL4 (R&D Systems Cat#1506-D4/CF) (human) (UniProt Q9NR61); experiment: MSD ECL multi-spot plate, antigen immobilized; Fab 42.112 nM; blank spot 323
[2] = molecular target: rHuman Notch-1/Fc Chimera, CF (R&D Systems Cat#3647-TK) (human) (UniProt P46531); experiment: as above
[3] = molecular target: rHuman Erythropoietin R/Fc Chimera, CF (R&D Systems Cat#963-ER) (human) (UniProt P19235); experiment: as above
[4] = molecular target: rHuman HGF R/c-MET/Fc Chimera, CF (R&D Systems Cat#358-MT/CF) (human) (UniProt P08581); experiment: as above
[5] = molecular target: Recombinant Human DLL4 (R&D Systems Cat#1506-D4/CF) (human) (UniProt Q9NR61); experiment: MSD ECL multi-spot plate, antigen immobilized; Fab 421.12 nM; blank spot 639
[6] = molecular target: rHuman Notch-1/Fc Chimera, CF (R&D Systems Cat#3647-TK) (human) (UniProt P46531); experiment: as above
[7] = molecular target: rHuman Erythropoietin R/Fc Chimera, CF (R&D Systems Cat#963-ER) (human) (UniProt P19235); experiment: as above
[8] = molecular target: rHuman HGF R/c-MET/Fc Chimera, CF (R&D Systems Cat#358-MT/CF) (human) (UniProt P08581); experiment: as above
[9] = molecular target: rHuman Erythropoietin R/Fc Chimera, CF (R&D Systems Cat#963-ER) (human) (UniProt P19235); experiment: ECL (MSD multi-spot) screen, antigen spotted on plate, Fab at 0.42 uM; blank spot 450
[10] = molecular target: Recombinant Human DLL4 (R&D Systems Cat#1506-D4/CF) (human) (UniProt Q9NR61); experiment: MSD ECL multi-spot plate, antigen immobilized; Fab 12 nM; blank spot 573
[11] = molecular target: rHuman Notch-1/Fc Chimera, CF (R&D Systems Cat#3647-TK) (human) (UniProt P46531); experiment: as above
[12] = molecular target: rHuman HGF R/c-MET/Fc Chimera, CF (R&D Systems Cat#358-MT/CF) (human) (UniProt P08581); experiment: as above
[13] = molecular target: Recombinant Human DLL4 (R&D Systems Cat#1506-D4/CF) (human) (UniProt Q9NR61); experiment: MSD ECL multi-spot plate, antigen immobilized; Fab 1.2 nM; blank spot 227
[14] = molecular target: rHuman Notch-1/Fc Chimera, CF (R&D Systems Cat#3647-TK) (human) (UniProt P46531); experiment: as above
[15] = molecular target: rHuman HGF R/c-MET/Fc Chimera, CF (R&D Systems Cat#358-MT/CF) (human) (UniProt P08581); experiment: as above
[16] = molecular target: Recombinant Human DLL4 (R&D Systems Cat#1506-D4/CF) (human) (UniProt Q9NR61); experiment: MSD ECL multi-spot plate, antigen immobilized; Fab 0.12 nM; blank spot 264
[17] = molecular target: rHuman Notch-1/Fc Chimera, CF (R&D Systems Cat#3647-TK) (human) (UniProt P46531); experiment: as above
[18] = molecular target: rHuman HGF R/c-MET/Fc Chimera, CF (R&D Systems Cat#358-MT/CF) (human) (UniProt P08581); experiment: as above
[19] = molecular target: Recombinant Human DLL4 (R&D Systems Cat#1506-D4/CF) (human) (UniProt Q9NR61); experiment: MSD ECL multi-spot plate, antigen immobilized; Fab 120 nM; blank spot 6749
[20] = molecular target: rHuman Notch-1/Fc Chimera, CF (R&D Systems Cat#3647-TK) (human) (UniProt P46531); experiment: as above
[21] = molecular target: rHuman HGF R/c-MET/Fc Chimera, CF (R&D Systems Cat#358-MT/CF) (human) (UniProt P08581); experiment: as above
[22] = molecular target: Recombinant Human DLL4 (R&D Systems Cat#1506-D4/CF) (human) (UniProt Q9NR61); experiment: ECL (MSD multi-spot) screen, antigen spotted on plate, Fab at 0.12 uM; blank spot 2225
[23] = molecular target: rHuman ErbB2/Fc Chimera, CF (R&D Systems Cat#1129-ER) (human) (UniProt P04626); experiment: as above
[24] = molecular target: rHuman Notch-1/Fc Chimera, CF (R&D Systems Cat#3647-TK) (human) (UniProt P46531); experiment: as above
[25] = molecular target: rHuman HGF R/c-MET/Fc Chimera, CF (R&D Systems Cat#358-MT/CF) (human) (UniProt P08581); experiment: as above
[26] = molecular target: rHuman IGF-1 sR, CF (R&D Systems Cat#391-GR) (human) (UniProt P08069); experiment: ECL (MSD multi-spot) screen, antigen spotted on plate, Fab at 0.21 uM; blank spot 489
[27] = molecular target: rHuman EGF R/Fc Chimera, CF (R&D Systems Cat#344-ER) (human) (UniProt P00533); experiment: as above
[28] = molecular target: rHuman ErbB2/Fc Chimera, CF (R&D Systems Cat#1129-ER) (human) (UniProt P04626); experiment: as above
[29] = molecular target: rHuman HGF R/c-MET/Fc Chimera, CF (R&D Systems Cat#358-MT/CF) (human) (UniProt P08581); experiment: as above
[30] = molecular target: rHuman EGF R/Fc Chimera, CF (R&D Systems Cat#344-ER) (human) (UniProt P00533); experiment: ECL (MSD multi-spot), Fab 210 nM; blank 833
[31] = molecular target: rHuman ErbB2/Fc Chimera, CF (R&D Systems Cat#1129-ER) (human) (UniProt P04626); experiment: ECL (MSD multi-spot), Fab 210 nM; blank 833
[32] = molecular target: rHuman Notch-1/Fc Chimera, CF (R&D Systems Cat#3647-TK) (human) (UniProt P46531); experiment: ECL (MSD multi-spot), Fab 210 nM; blank 833
[33] = molecular target: rHuman IGF-1 sR (IGF-1 sR), CF (R&D Systems Cat#391-GR) (human) (UniProt P08069); experiment: ECL (MSD multi-spot), Fab 210 nM; blank 833
[34] = molecular target: rHuman Erythropoietin R/Fc Chimera, CF (R&D Systems Cat#963-ER) (human) (UniProt P19235); experiment: ECL (MSD multi-spot), Fab 210 nM; blank 833
[35] = molecular target: rHuman HGF R/c-MET/Fc Chimera, CF (R&D Systems Cat#358-MT/CF) (human) (UniProt P08581); experiment: ECL (MSD multi-spot), Fab 210 nM; blank 833
[36] = molecular target: rHuman EGF R/Fc Chimera, CF (R&D Systems Cat#344-ER) (human) (UniProt P00533); experiment: ECL (MSD multi-spot), Fab 3.3 nM; blank 359
[37] = molecular target: rHuman ErbB2/Fc Chimera, CF (R&D Systems Cat#1129-ER) (human) (UniProt P04626); experiment: ECL (MSD multi-spot), Fab 3.3 nM; blank 359
[38] = molecular target: rHuman Notch-1/Fc Chimera, CF (R&D Systems Cat#3647-TK) (human) (UniProt P46531); experiment: ECL (MSD multi-spot), Fab 3.3 nM; blank 359
[39] = molecular target: rHuman IGF-1 sR (IGF-1 sR), CF (R&D Systems Cat#391-GR) (human) (UniProt P08069); experiment: ECL (MSD multi-spot), Fab 3.3 nM; blank 359
[40] = molecular target: rHuman Erythropoietin R/Fc Chimera, CF (R&D Systems Cat#963-ER) (human) (UniProt P19235); experiment: ECL (MSD multi-spot), Fab 3.3 nM; blank 359
[41] = molecular target: rHuman HGF R/c-MET/Fc Chimera, CF (R&D Systems Cat#358-MT/CF) (human) (UniProt P08581); experiment: ECL (MSD multi-spot), Fab 3.3 nM; blank 359
[42] = molecular target: rHuman EGF R/Fc Chimera, CF (R&D Systems Cat#344-ER) (human) (UniProt P00533); experiment: ECL (MSD multi-spot), Fab 52.5 nM; blank 467
[43] = molecular target: rHuman ErbB2/Fc Chimera, CF (R&D Systems Cat#1129-ER) (human) (UniProt P04626); experiment: ECL (MSD multi-spot), Fab 52.5 nM; blank 467
[44] = molecular target: rHuman Notch-1/Fc Chimera, CF (R&D Systems Cat#3647-TK) (human) (UniProt P46531); experiment: ECL (MSD multi-spot), Fab 52.5 nM; blank 467
[45] = molecular target: rHuman IGF-1 sR (IGF-1 sR), CF (R&D Systems Cat#391-GR) (human) (UniProt P08069); experiment: ECL (MSD multi-spot), Fab 52.5 nM; blank 467
[46] = molecular target: rHuman Erythropoietin R/Fc Chimera, CF (R&D Systems Cat#963-ER) (human) (UniProt P19235); experiment: ECL (MSD multi-spot), Fab 52.5 nM; blank 467
[47] = molecular target: rHuman HGF R/c-MET/Fc Chimera, CF (R&D Systems Cat#358-MT/CF) (human) (UniProt P08581); experiment: ECL (MSD multi-spot), Fab 52.5 nM; blank 467
[48] = molecular target: rHuman EGF R/Fc Chimera, CF (R&D Systems Cat#344-ER) (human) (UniProt P00533); experiment: ECL (MSD multi-spot), Fab […]; blank 376
[49] = molecular target: rHuman ErbB2/Fc Chimera, CF (R&D Systems Cat#1129-ER) (human) (UniProt P04626); experiment: ECL (MSD multi-spot), Fab […]; blank 376
[50] = molecular target: rHuman Notch-1/Fc Chimera, CF (R&D Systems Cat#3647-TK) (human) (UniProt P46531); experiment: ECL (MSD multi-spot), Fab […]; blank 376
[51] = molecular target: rHuman IGF-1 sR (IGF-1 sR), CF (R&D Systems Cat#391-GR) (human) (UniProt P08069); experiment: ECL (MSD multi-spot), Fab […]; blank 376
[52] = molecular target: rHuman Erythropoietin R/Fc Chimera, CF (R&D Systems Cat#963-ER) (human) (UniProt P19235); experiment: ECL (MSD multi-spot), Fab […]; blank 376
[53] = molecular target: rHuman HGF R/c-MET/Fc Chimera, CF (R&D Systems Cat#358-MT/CF) (human) (UniProt P08581); experiment: ECL (MSD multi-spot), Fab […]; blank 376

Chain of rHuman Erythropoietin R/Fc Chimera, CF (R&D Systems Cat#963-ER) (human) (P19235 25-250, change not shown): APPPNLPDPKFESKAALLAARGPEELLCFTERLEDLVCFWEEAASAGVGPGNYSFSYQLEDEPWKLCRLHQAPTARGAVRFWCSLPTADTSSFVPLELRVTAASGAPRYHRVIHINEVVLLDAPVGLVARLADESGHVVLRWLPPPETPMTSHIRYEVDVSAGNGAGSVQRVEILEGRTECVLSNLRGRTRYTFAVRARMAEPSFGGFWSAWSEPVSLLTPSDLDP

Fab VH3-23_IGHD3-10*01>1′_IGHJ3*01 & O12_IGKJ1*01
ECL signal [1]: 404 ECL signal
ECL signal [2]: 437 ECL signal
ECL signal [3]: 759 ECL signal
ECL signal [4]: 565 ECL signal
ECL signal [5]: 1090 ECL signal
ECL signal [6]: 1060 ECL signal
ECL signal [7]: 1300 ECL signal
ECL signal [8]: 1200 ECL signal
ECL signal [9]: 1500

Fab VH3-23_IGHD3-10*01>3_IGHJ6*01 & O12_IGKJ1*01
ECL signal [10]: 2510 ECL signal
ECL signal [11]: 2580 ECL signal
ECL signal [12]: 2700 ECL signal
ECL signal [13]: 319 ECL signal
ECL signal [14]: 660 ECL signal
ECL signal [15]: 412 ECL signal
ECL signal [16]: 210 ECL signal
ECL signal [17]: 218 ECL signal
ECL signal [18]: 287 ECL signal
ECL signal [19]: 20600 ECL signal
ECL signal [20]: 14400 ECL signal
ECL signal [21]: 15900 ECL signal
ECL signal [22]: 6650
ECL signal [23]: 4580
ECL signal [24]: 5500
ECL signal [25]: 5470

Fab VH4-31_IGHD2-15*01_IGHJ2*01 & V1-4_IGLJ4*01
ECL signal [26]: 1560
ECL signal [27]: 1300
ECL signal [28]: 1310
ECL signal [29]: 1530
ECL signal [30]: 1620 ECL signal
ECL signal [31]: 1980 ECL signal
ECL signal [32]: 1970 ECL signal
ECL signal [33]: 1430 ECL signal
ECL signal [34]: 2120 ECL signal
ECL signal [35]: 2060 ECL signal
ECL signal [36]: 847 ECL signal
ECL signal [37]: 1030 ECL signal
ECL signal [38]: 726 ECL signal
ECL signal [39]: 743 ECL signal
ECL signal [40]: 695 ECL signal
ECL signal [41]: 849 ECL signal
ECL signal [42]: 1110 ECL signal
ECL signal [43]: 1510 ECL signal
ECL signal [44]: 1320 ECL signal
ECL signal [45]: 911 ECL signal
ECL signal [46]: 1320 ECL signal
ECL signal [47]: 1290 ECL signal
ECL signal [48]: 824 ECL signal
ECL signal [49]: 930 ECL signal
ECL signal [50]: 669 ECL signal
ECL signal [51]: 814 ECL signal
ECL signal [52]: 776 ECL signal
ECL signal [53]: 981 ECL signal
